Results: US7749968B2, “Peptides for targeting the prostate specific membrane antigen” (The Johns Hopkins University, priority 2002, dated 2010)

What was measured:
xPSM [1] = target: T1, xPSM (Homo sapiens, UniProt Q04609); assay: Final phage display round on xPSM bound to microtiter plates; type: binding
T1 construct: Purified human xPSM (the extracellular portion of human PSMA); S-tag (cleaved yes); made in house; host or cells: Sf-9 insect cells infected with recombinant baculovirus; released from S-protein agarose by enterokinase
Excerpt: In addition to phage library partitioning by cell binding, a final round of binding was completed on xPSM (Tag-xPSM digested with enterokinase) bound to plastic microtiter plates. This final round was used to ensure that those peptides identified in the LNCaP screen were targeting PSMA and not another unknown surface protein.
Multiple individual phage from rounds three of LNCaP binding and the final round of xPSM binding were isolated, amplified, and sequenced. […] Two sequences are highly represented and are found in both cell and purified protein backgrounds.

xPSM [2] = target: T1, xPSM; assay: NAAG hydrolysis (NAALADase) assay with purified xPSM; type: biochemical; details: 1, 10 and 100 micromolar; 30 nM NAAG substrate, 37° C., 10 minutes
Excerpt: In another embodiment, the peptide compounds of the invention specifically enhance the enzymatic activity of PSMA. In another embodiment, peptide compounds of the invention may inhibit PSMA activity. Accordingly, the invention provides a method for assaying peptide compounds for the ability to modulate the activity of PSMA. This method is described in detail in Robinson, M. B. et al. (1987) J. Biol. Chem. 262:14498-506, incorporated herein by reference, as well as in Example 6 herein. Purified human xPSM (the extracellular portion of human PSMA) is incubated with a radiolabeled substrate, N-acetyl-L-aspartyl-L-[3,4-^3H]glutamate, plus the peptide compound being tested. Hydrolyzed substrate is then separated from intact substrate (e.g., by anion exchange chromatography) and quantitated to determine whether the test peptide compound was able to modulate PSMA activity.
N-acetyl-aspartyl-glutamate (NAAG) hydrolysis was performed essentially as previously described (Robinson, M. B. et al. (1987) J. Biol. Chem. 262:14498-506, incorporated herein by reference). In short, 65 ng purified xPSM was resuspended in NAALADase Buffer (50 mM Tris, pH 7.4, 0.5% Triton X-100) and incubated in the presence of peptides or inhibitors (1, 10, and 100 micromolar), along with the radiolabeled substrate N-acetyl-L-aspartyl-L-[3,4-^3H]glutamate (NEN Life Science Products, Boston, Mass.) at 30 nM. Reactions were run at 37° C. for 10 minutes. The reaction was then stopped by the addition of an equal volume of ice-cold 100 mM sodium phosphate, 2 mM EDTA. Products were separated from intact substrate using AG 1-X8 Formate resin (BioRad Laboratories, Hercules, Calif.) anion exchange chromatography. The reaction product, tritiated-glutamate, was eluted with 1M sodium formate and quantitated by scintillation counting. Intact NAAG remained in the column resin. Experiments were completed in triplicate and have been repeated. The data represents six data points from two experiments. Experiments were designed to allow 20% or less of the total substrate to be cleaved.

Tag-xPSM [3] = target: T2, Tag-xPSM (Homo sapiens, UniProt Q04609); assay: Tag-xPSM phage display selection (agarose/cellulose), sequencing of selected phage; type: binding
T2 construct: made in house; host or cells: Sf-9 insect cells infected with recombinant baculovirus; protein harvested from the media
Method: 100 μl of S-protein agarose (2× in RPMI 1640+1% Fetal Bovine Serum (FBS) and 100 μl of CBind Resin (10 mg/ml in RPMI 1640+1% FBS) without fusion protein were used to negatively select the original phage display library. 2×10^11 plaque forming units (PFU) of 1.29×10^9 different sequence phage were incubated with each aliquot of resin for 1 hr at 37° C., while rotating. The S-tag agarose was pelleted and supernatant saved as the agarose counter-selected pool. The cellulose resin was transferred onto 200 μl of 9:1 dibutyl phthalate:cyclohexane and the resin pelleted through the organic phase. The aqueous supernatant was saved as the cellulose counter-selected pool. Each counter selected pool was then added to tag-xPSM agarose or cellulose resin and incubated for 1 hr at 37° C., while rotating. The tag-xPSM agarose was pelleted and washed three times in RPMI 1640+1% FBS. The agarose pellet was then saved for phage isolation. The Tag-xPSM cellulose was transferred onto 200 μl of 9:1 dibutyl phthalate:cyclohexane and the resin pelleted through the organic phase. The tube was then snap frozen in liquid nitrogen to isolate the resin pellet. Over 75% of Tag-xPSM remained bound to the cellulose resin through these conditions. The resulting phage-bound tag-xPSM agarose and tag-xPSM cellulose were then resuspended in 200 μl of log phage ER2738 cells and phage allowed to infect 1 hour at room temperature. A small aliquot was taken at this time to quantitate the number of phage bound per round of selection. The remaining PSMA bound phage was then amplified, tittered, and applied to the next round of phage display. There was only one counter-selection round, followed by a total of five positive selection rounds, applying between 10^10 to 10^11 PFU per round. The final round of selection included cross-selections, where selected phage pools from one PSMA background where applied to the other. Individual phage were isolated and sequenced from rounds three through five.
Individual phage plaques were amplified for 5 hours in ER2738 cells at 37° C. Amplified supernatant was incubated 1:1 with PEG/NaCl buffer (20% PEG 8000, 2.5 M NaCl) for 10 minutes at room temperature. Phage were microfuged 10 minutes at 20,000 g, 4° C. The phage pellet was suspended in 100 μl Iodide buffer (10 mM Tris-HCl, pH 8.0, 1 mM EDTA, 4M NaI). Single stranded DNA (ssDNA) was precipitated with 250 μl of 100% ethanol, pelleted, and washed in 70% ethanol. Each ssDNA pellet was suspended in 30 μl 10 mM Tris, pH 7.4. Each phage was sequenced using the Amersham DYE ET mix, by incubating 6 μl ssDNA, 1 μl of 5 μM-96 pill Sequencing Primer ([…]; SEQ ID NO:108), and 8 μl of DYE ET mix in a 96 well PCR plate and amplified by 30 cycles of 95° C. for 20 seconds, 50° C. for 15 seconds, and 60° C. for 1 minute. Sequencing reaction products were spun through G50-fine Sephadex column plates, prepared on Millipore-multiscreen plates. Products were sequenced and analyzed on the MegaBACE capillary sequencer. All sequences, minus the flanking cysteines, were aligned using the Baylor College of Medicine Clustal W1.8 Global Progressive Alignment (available online) with data presented by Boxshade 3.21 software (available online through the Swiss Institute for Bioinformatics).
2×10^11 plaque-forming units (PFU) of the library was incubated with each aliquot of resin for one hour at 37° C., while rotating. The S-tag agarose was pelleted and the supernatant saved as the agarose counter-selected pool. The cellulose resin was transferred onto a 9:1 ratio of dibutyl phthalate:cyclohexane and the resin centrifuged through the organic phase. The aqueous supernatant was saved as the cellulose counter-selected pool. Each counter selected pool was then added to tag-xPSM agarose or cellulose resin, respectively, and incubated for one hour at 37° C., while rotating (see FIG. 2). The Tag-xPSM agarose was pelleted, washed, and saved for phage isolation. […]

Tag-xPSM [4] = target: T2, Tag-xPSM; assay: Stringent Tag-xPSM phage display, round 4 acid elution pool; type: binding; details: pH 2.2 pool
Method: As described above in Example 1, Tag-xPSM was used as a target for the in vitro selection of a commercially available cysteine-constrained heptapeptide phage library. For the initial round, 14 micrograms of S-protein-agarose immobilized Tag-xPSM was incubated with 2×10^11 PFU for 30 minutes at room temperature while rotating. Weakly bound phage were then washed off with three 5 minute rotating washes. One phage pool, referred to herein as the “pH 2.2 pool”, was eluted for ten minutes in pH 2.2 glycine buffer followed by neutralization in Tris buffer. Those phage still bound to Tag-xPSM were then eluted for one hour in 30 mM EDTA-Tris buffer. This pool is referred to herein as the “EDTA pool”. These two pools where then carried separately for the next three rounds. Stringency was increased in each round by changing Tag-xPSM substrate background, decreasing binding time, or increasing washing time (Table 3).
Twelve individual phage from each elution condition for rounds two, three, and four of Tag-xPSM phage display were isolated, amplified, and sequenced. All clones sequenced from rounds 2 and 3 were unique (Tables 4 and 5).

T1 sequence (Q04609 44-750 limits assumed): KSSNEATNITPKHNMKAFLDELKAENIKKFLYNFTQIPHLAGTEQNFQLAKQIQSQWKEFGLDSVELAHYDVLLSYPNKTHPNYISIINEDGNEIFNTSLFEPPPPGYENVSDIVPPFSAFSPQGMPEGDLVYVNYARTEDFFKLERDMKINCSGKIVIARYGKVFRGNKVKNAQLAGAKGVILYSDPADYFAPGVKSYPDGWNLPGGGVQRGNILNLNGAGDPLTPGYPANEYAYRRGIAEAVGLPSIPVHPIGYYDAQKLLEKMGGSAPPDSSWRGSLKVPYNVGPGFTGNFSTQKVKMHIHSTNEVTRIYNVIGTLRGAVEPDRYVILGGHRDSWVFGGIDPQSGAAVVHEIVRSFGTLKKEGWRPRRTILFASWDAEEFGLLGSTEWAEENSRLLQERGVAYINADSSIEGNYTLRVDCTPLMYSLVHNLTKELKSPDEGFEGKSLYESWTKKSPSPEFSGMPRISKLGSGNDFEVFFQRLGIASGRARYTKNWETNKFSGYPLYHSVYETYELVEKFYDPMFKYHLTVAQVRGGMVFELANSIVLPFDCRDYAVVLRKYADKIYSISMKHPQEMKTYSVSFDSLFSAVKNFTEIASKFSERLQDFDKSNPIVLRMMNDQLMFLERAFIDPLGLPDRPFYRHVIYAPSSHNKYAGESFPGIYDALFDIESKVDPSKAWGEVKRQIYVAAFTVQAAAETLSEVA
T2 sequence (Q04609 44-750 limits assumed): as above

| Compound | Number of times sequence was found, Round 1 xPSM (xPSM [1]) | Number of times sequence was found, Round 3 (Tag-xPSM [3]; Agarose) | Number of times sequence was found, Round 4 (Tag-xPSM [3]; Agarose) | Number of times sequence was found, Round 5 (Tag-xPSM [3]; Agarose) | Number of times sequence was found, Round 3 (Tag-xPSM [3]; Cellulose) | Number of times sequence was found, Round 4 (Tag-xPSM [3]; Cellulose) | Number of times sequence was found, Round 5 (Tag-xPSM [3]; Cellulose) | further results |
| --- | --- | --- | --- | --- | --- | --- | --- | --- |
| CKSGEVNYC [SEQ ID NO:34] | 0 | – | – | – | – | – | – | – |
| N[C@@H](Cn1oc(=O)[nH]c1=O)C(=O)O [quisqualic acid, reference compound] | – | – | – | – | – | – | – | Effect on PSMA enzymatic activity (xPSM [2]): inhibited |
| CERNTYRFC [SEQ ID NO:33] | 0 | – | – | – | – | – | – | – |
| CLAAPTGKC [SEQ ID NO:30] | 12 | – | – | – | – | – | – | – |
| CGSAARNWC [SEQ ID NO:32] | 0 | – | – | – | – | – | – | – |
| CQKHHNYLC [SEQ ID NO:1] | – | 0/0 | 0/0 | 0 | 0/0 | 0/0 | – | Effect on PSMA enzymatic activity (xPSM [2]): enhanced; Number of times sequence was found, Round 5 (Tag-xPSM [3]; asterisk: cross-selected, agarose pool selected on cellulose (final resin)): 12 |
| CLNTAPLAC [SEQ ID NO:60] | – | – | – | – | – | – | – | Share of the round 4 acid elution pool (Tag-xPSM [4]): 83% |
| CSHNDTRHC [SEQ ID NO:4] | – | 0/0 | 0/0 | 0 | 0/0 | 0/0 | 1 | – |
| CQTPYDLRC [SEQ ID NO:10] | – | 0/0 | 0/0 | 0 | 0/0 | 0/0 | 1 | – |
| CTNPNMHHC [SEQ ID NO:35] | 0 | – | – | – | – | – | – | – |
| CQFRHSAQC [SEQ ID NO:23] | – | 1 | 0/0 | 0/0 | 0 | 0/0 | 0/0 | – |

The next lines start with results.

| Number of times sequence was found, Round 1 xPSM (xPSM [1]) | Number of times sequence was found, Round 3 (Tag-xPSM [3]; Agarose) | Number of times sequence was found, Round 4 (Tag-xPSM [3]; Agarose) | Number of times sequence was found, Round 5 (Tag-xPSM [3]; Agarose) | Number of times sequence was found, Round 3 (Tag-xPSM [3]; Cellulose) | Number of times sequence was found, Round 4 (Tag-xPSM [3]; Cellulose) | Number of times sequence was found, Round 5 (Tag-xPSM [3]; Cellulose) | Compound | further results |
| --- | --- | --- | --- | --- | --- | --- | --- | --- |
| – | 0/0 | 13/13 | 0 | 0/0 | 13/13 | 2 | CTLVPHTRC [SEQ ID NO:3] | Effect on PSMA enzymatic activity (xPSM [2]): enhanced |
| 1 | – | – | – | – | – | – | CNKAALGTC [SEQ ID NO:31] | – |
| 7 | – | – | – | – | – | – | CTYNPSRWC [SEQ ID NO:29] | – |
| – | 0/0 | 0/0 | 0 | 0/0 | 0/0 | 1 | CPSVNTKQC [SEQ ID NO:9] | – |
| – | 0/0 | 0/0 | 0 | 0/0 | 0/0 | 1 | CSSHSTVHC [SEQ ID NO:7] | – |
| 1 | – | – | – | – | – | – | CPQPASRQC [SEQ ID NO:36] | – |
| – | 0 | 0/0 | 0/0 | 1 | 0/0 | 0/0 | CTSNNSAIC [SEQ ID NO:27] | – |
